How the values were obtained:
[1] = molecular target: human AXL (full length) (human) (UniProt P30530); assay: flow cytometry, A431 cells, no Gas6
[2] = molecular target: human AXL (full length) (human) (UniProt P30530); assay: flow cytometry, A431 cells pre-incubated with 10 µg/mL Gas6 (competitor); value less accurate due to low binding
[3] = molecular target: human AXL (full length) (human) (UniProt P30530); assay: flow cytometry, A431 cells pre-incubated with 10 µg/mL Gas6 (competitor)

EC50 [1]: 0.09 µg/mL
EC50 [2]: 1.9 µg/mL
fold change of EC50 after Gas6 pre-incubation against no Gas6 [3]: 21 fold
maximal binding in presence of Gas6 (% of binding in absence of Gas6) [3]: 41%
maximal binding in presence of Gas6 (% of binding without Gas6) [3]: 19%
B1: IgG1-YW327.6S2 (antibody, from another filing, V domains shown)
VH: EVQLVESGGGLVQPGGSLRLSCAASGFSLSGSWIHWVRQAPGKGLEWVGWINPYRGYAYYADSVKGRFTISADTSKNTAYLQMNSLRAEDTAVYYCAREYSGWGGSSVGYAMDYWGQGTLVTVSS
VL: DIQMTQSPSSLSASVGDRVTITCRASQDVSTAVAWYQQKPGKAPKLLIYSASFLYSGVPSRFSGSGSGTDFTLTISSLQPEDFATYYCQQSYTTPPTFGQGTKVEIK

— patent publication US20180326084A1
